Data as given in patent US20260001928A1 (CORTERIA PHARMACEUTICALS, priority 2022, published 2026).
One block for each binder: values may come before it. *1 amine or outer side, *2 acyl side, *3 side chain or, on linkers, in order; H or OH if unused. Where no end group is shown, it is not given here. Side-chain parts run from the residue outwards. [ ]: non-standard residue; d: D form. The star is where a group is joined. C20 diacid = O=C(O)CCCCCCCCCCCCCCCCCCC(=O)*; C16 diacid = O=C(O)CCCCCCCCCCCCCCC(=O)*; γGlu = O=C(O)[C@H](CCC(=O)[*:2])N[*:1]; NMeI = CC[C@H](C)[C@H](NC)C(=O)O; Aib = CC(C)(N)C(=O)O

Columns and labels:
CRF1R receptor = molecular target: T1, CRF1R receptor (UniProt P34998 24-415, limits assumed); test: cell-based or functional assay
T1 sequence (looked up): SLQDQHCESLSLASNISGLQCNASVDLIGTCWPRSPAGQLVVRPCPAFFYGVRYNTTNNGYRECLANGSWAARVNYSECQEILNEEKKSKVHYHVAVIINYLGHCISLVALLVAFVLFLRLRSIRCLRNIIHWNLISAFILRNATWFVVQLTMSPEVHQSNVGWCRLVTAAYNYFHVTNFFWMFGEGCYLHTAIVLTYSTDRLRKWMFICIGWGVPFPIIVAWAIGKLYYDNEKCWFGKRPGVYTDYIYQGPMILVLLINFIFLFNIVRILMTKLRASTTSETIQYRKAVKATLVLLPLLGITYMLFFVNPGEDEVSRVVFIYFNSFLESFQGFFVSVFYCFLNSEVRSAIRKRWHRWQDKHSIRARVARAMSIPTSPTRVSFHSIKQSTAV

[1] = molecular target: human corticotropin-releasing factor 2a (CRF2a receptor) (human), Q13324; test: cell-based or functional assay
human corticotropin-releasing factor 2a (CRF2a receptor) (human), Q13324, sequence (Q13324 20-411): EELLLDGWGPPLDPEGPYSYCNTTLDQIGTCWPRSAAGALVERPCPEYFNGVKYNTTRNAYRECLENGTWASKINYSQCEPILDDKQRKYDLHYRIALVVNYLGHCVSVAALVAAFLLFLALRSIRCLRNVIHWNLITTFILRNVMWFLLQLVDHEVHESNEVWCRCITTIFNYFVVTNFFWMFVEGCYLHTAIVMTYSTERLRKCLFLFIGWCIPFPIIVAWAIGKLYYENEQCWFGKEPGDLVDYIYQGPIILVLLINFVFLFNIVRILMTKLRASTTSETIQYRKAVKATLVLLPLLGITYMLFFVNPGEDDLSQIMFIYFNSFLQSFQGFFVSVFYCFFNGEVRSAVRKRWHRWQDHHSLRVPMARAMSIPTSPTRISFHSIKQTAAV

- Emax (% I) (CRF1R receptor): 34%
- EC50 [nM] (cAMP) [1]: 0.12 nM
B1: SEQ ID NO 214 (peptide)
peptide: [NMeI]VLSLD[dV]PIKLK([γGlu-C20 diacid])KILLEQEKQKKQREQAETN[Aib]QILAQV-NH2
modifications: N-terminus assumed
SMILES: CC[C@H](C)[C@H](NC)C(=O)N[C@H](C(=O)N[C@@H](CC(C)C)C(=O)N[C@@H](CO)C(=O)N[C@@H](CC(C)C)C(=O)N[C@@H](CC(=O)O)C(=O)N[C@@H](C(=O)N1CCC[C@H]1C(=O)N[C@H](C(=O)N[C@@H](CCCCN)C(=O)N[C@@H](CC(C)C)C(=O)N[C@@H](CCCCNC(=O)CC[C@H](NC(=O)CCCCCCCCCCCCCCCCCCC(=O)O)C(=O)O)C(=O)N[C@@H](CCCCN)C(=O)N[C@H](C(=O)N[C@@H](CC(C)C)C(=O)N[C@@H](CC(C)C)C(=O)N[C@@H](CCC(=O)O)C(=O)N[C@@H](CCC(N)=O)C(=O)N[C@@H](CCC(=O)O)C(=O)N[C@@H](CCCCN)C(=O)N[C@@H](CCC(N)=O)C(=O)N[C@@H](CCCCN)C(=O)N[C@@H](CCCCN)C(=O)N[C@@H](CCC(N)=O)C(=O)N[C@@H](CCCNC(=N)N)C(=O)N[C@@H](CCC(=O)O)C(=O)N[C@@H](CCC(N)=O)C(=O)N[C@@H](C)C(=O)N[C@@H](CCC(=O)O)C(=O)N[C@H](C(=O)N[C@@H](CC(N)=O)C(=O)NC(C)(C)C(=O)N[C@@H](CCC(N)=O)C(=O)N[C@H](C(=O)N[C@@H](CC(C)C)C(=O)N[C@@H](C)C(=O)N[C@@H](CCC(N)=O)C(=O)N[C@H](C(N)=O)C(C)C)[C@@H](C)CC)[C@@H](C)O)[C@@H](C)CC)[C@@H](C)CC)C(C)C)C(C)C

- EC50 (CRF1R receptor): 80.3 nM
- Emax (% I) (CRF1R receptor): 61%
- EC50 [nM] (cAMP) [1]: 0.05 nM
B2: SEQ ID NO 216 (peptide)
peptide: [NMeI]VLSLD[dV]PIKLK([γGlu-C20 diacid])KILLEQEAQKKQREQAETN[Aib]QILAQV-NH2
modifications: N-terminus assumed
SMILES: CC[C@H](C)[C@H](NC)C(=O)N[C@H](C(=O)N[C@@H](CC(C)C)C(=O)N[C@@H](CO)C(=O)N[C@@H](CC(C)C)C(=O)N[C@@H](CC(=O)O)C(=O)N[C@@H](C(=O)N1CCC[C@H]1C(=O)N[C@H](C(=O)N[C@@H](CCCCN)C(=O)N[C@@H](CC(C)C)C(=O)N[C@@H](CCCCNC(=O)CC[C@H](NC(=O)CCCCCCCCCCCCCCCCCCC(=O)O)C(=O)O)C(=O)N[C@@H](CCCCN)C(=O)N[C@H](C(=O)N[C@@H](CC(C)C)C(=O)N[C@@H](CC(C)C)C(=O)N[C@@H](CCC(=O)O)C(=O)N[C@@H](CCC(N)=O)C(=O)N[C@@H](CCC(=O)O)C(=O)N[C@@H](C)C(=O)N[C@@H](CCC(N)=O)C(=O)N[C@@H](CCCCN)C(=O)N[C@@H](CCCCN)C(=O)N[C@@H](CCC(N)=O)C(=O)N[C@@H](CCCNC(=N)N)C(=O)N[C@@H](CCC(=O)O)C(=O)N[C@@H](CCC(N)=O)C(=O)N[C@@H](C)C(=O)N[C@@H](CCC(=O)O)C(=O)N[C@H](C(=O)N[C@@H](CC(N)=O)C(=O)NC(C)(C)C(=O)N[C@@H](CCC(N)=O)C(=O)N[C@H](C(=O)N[C@@H](CC(C)C)C(=O)N[C@@H](C)C(=O)N[C@@H](CCC(N)=O)C(=O)N[C@H](C(N)=O)C(C)C)[C@@H](C)CC)[C@@H](C)O)[C@@H](C)CC)[C@@H](C)CC)C(C)C)C(C)C

- EC50 (CRF1R receptor): 229 nM
- Emax (% I) (CRF1R receptor): 41%
- EC50 [nM] (cAMP) [1]: 0.11 nM
B3: SEQ ID NO 212 (peptide)
peptide: Ac-IVLSLD[dV]PIKLK([γGlu-C20 diacid])KILLEQEKQKAQREQAETN[Aib]QILAQV-NH2
SMILES: CC[C@H](C)[C@H](NC(C)=O)C(=O)N[C@H](C(=O)N[C@@H](CC(C)C)C(=O)N[C@@H](CO)C(=O)N[C@@H](CC(C)C)C(=O)N[C@@H](CC(=O)O)C(=O)N[C@@H](C(=O)N1CCC[C@H]1C(=O)N[C@H](C(=O)N[C@@H](CCCCN)C(=O)N[C@@H](CC(C)C)C(=O)N[C@@H](CCCCNC(=O)CC[C@H](NC(=O)CCCCCCCCCCCCCCCCCCC(=O)O)C(=O)O)C(=O)N[C@@H](CCCCN)C(=O)N[C@H](C(=O)N[C@@H](CC(C)C)C(=O)N[C@@H](CC(C)C)C(=O)N[C@@H](CCC(=O)O)C(=O)N[C@@H](CCC(N)=O)C(=O)N[C@@H](CCC(=O)O)C(=O)N[C@@H](CCCCN)C(=O)N[C@@H](CCC(N)=O)C(=O)N[C@@H](CCCCN)C(=O)N[C@@H](C)C(=O)N[C@@H](CCC(N)=O)C(=O)N[C@@H](CCCNC(=N)N)C(=O)N[C@@H](CCC(=O)O)C(=O)N[C@@H](CCC(N)=O)C(=O)N[C@@H](C)C(=O)N[C@@H](CCC(=O)O)C(=O)N[C@H](C(=O)N[C@@H](CC(N)=O)C(=O)NC(C)(C)C(=O)N[C@@H](CCC(N)=O)C(=O)N[C@H](C(=O)N[C@@H](CC(C)C)C(=O)N[C@@H](C)C(=O)N[C@@H](CCC(N)=O)C(=O)N[C@H](C(N)=O)C(C)C)[C@@H](C)CC)[C@@H](C)O)[C@@H](C)CC)[C@@H](C)CC)C(C)C)C(C)C

- Emax (% I) (CRF1R receptor): 27%
- EC50 [nM] (cAMP) [1]: 0.22 nM
B4: SEQ ID NO 213 (peptide)
peptide: Ac-IVLSLD[dV]PIKLK([γGlu-C20 diacid])KILLEQEKQKEQREQAETN[Aib]QILAQV-NH2
SMILES: CC[C@H](C)[C@H](NC(C)=O)C(=O)N[C@H](C(=O)N[C@@H](CC(C)C)C(=O)N[C@@H](CO)C(=O)N[C@@H](CC(C)C)C(=O)N[C@@H](CC(=O)O)C(=O)N[C@@H](C(=O)N1CCC[C@H]1C(=O)N[C@H](C(=O)N[C@@H](CCCCN)C(=O)N[C@@H](CC(C)C)C(=O)N[C@@H](CCCCNC(=O)CC[C@H](NC(=O)CCCCCCCCCCCCCCCCCCC(=O)O)C(=O)O)C(=O)N[C@@H](CCCCN)C(=O)N[C@H](C(=O)N[C@@H](CC(C)C)C(=O)N[C@@H](CC(C)C)C(=O)N[C@@H](CCC(=O)O)C(=O)N[C@@H](CCC(N)=O)C(=O)N[C@@H](CCC(=O)O)C(=O)N[C@@H](CCCCN)C(=O)N[C@@H](CCC(N)=O)C(=O)N[C@@H](CCCCN)C(=O)N[C@@H](CCC(=O)O)C(=O)N[C@@H](CCC(N)=O)C(=O)N[C@@H](CCCNC(=N)N)C(=O)N[C@@H](CCC(=O)O)C(=O)N[C@@H](CCC(N)=O)C(=O)N[C@@H](C)C(=O)N[C@@H](CCC(=O)O)C(=O)N[C@H](C(=O)N[C@@H](CC(N)=O)C(=O)NC(C)(C)C(=O)N[C@@H](CCC(N)=O)C(=O)N[C@H](C(=O)N[C@@H](CC(C)C)C(=O)N[C@@H](C)C(=O)N[C@@H](CCC(N)=O)C(=O)N[C@H](C(N)=O)C(C)C)[C@@H](C)CC)[C@@H](C)O)[C@@H](C)CC)[C@@H](C)CC)C(C)C)C(C)C

- Emax (% I) (CRF1R receptor): 19%
- EC50 [nM] (cAMP) [1]: 0.12 nM
B5: SEQ ID NO 215 (peptide)
peptide: [NMeI]VLSLD[dV]PIKLK([γGlu-C20 diacid])KILLEQEKQK[Aib]QREQAETN[Aib]QILAQV-NH2
modifications: N-terminus assumed
SMILES: CC[C@H](C)[C@H](NC)C(=O)N[C@H](C(=O)N[C@@H](CC(C)C)C(=O)N[C@@H](CO)C(=O)N[C@@H](CC(C)C)C(=O)N[C@@H](CC(=O)O)C(=O)N[C@@H](C(=O)N1CCC[C@H]1C(=O)N[C@H](C(=O)N[C@@H](CCCCN)C(=O)N[C@@H](CC(C)C)C(=O)N[C@@H](CCCCNC(=O)CC[C@H](NC(=O)CCCCCCCCCCCCCCCCCCC(=O)O)C(=O)O)C(=O)N[C@@H](CCCCN)C(=O)N[C@H](C(=O)N[C@@H](CC(C)C)C(=O)N[C@@H](CC(C)C)C(=O)N[C@@H](CCC(=O)O)C(=O)N[C@@H](CCC(N)=O)C(=O)N[C@@H](CCC(=O)O)C(=O)N[C@@H](CCCCN)C(=O)N[C@@H](CCC(N)=O)C(=O)N[C@@H](CCCCN)C(=O)NC(C)(C)C(=O)N[C@@H](CCC(N)=O)C(=O)N[C@@H](CCCNC(=N)N)C(=O)N[C@@H](CCC(=O)O)C(=O)N[C@@H](CCC(N)=O)C(=O)N[C@@H](C)C(=O)N[C@@H](CCC(=O)O)C(=O)N[C@H](C(=O)N[C@@H](CC(N)=O)C(=O)NC(C)(C)C(=O)N[C@@H](CCC(N)=O)C(=O)N[C@H](C(=O)N[C@@H](CC(C)C)C(=O)N[C@@H](C)C(=O)N[C@@H](CCC(N)=O)C(=O)N[C@H](C(N)=O)C(C)C)[C@@H](C)CC)[C@@H](C)O)[C@@H](C)CC)[C@@H](C)CC)C(C)C)C(C)C

- Emax (% I) (CRF1R receptor): 33%
- EC50 [nM] (cAMP) [1]: 0.09 nM
B6: SEQ ID NO 217 (peptide)
peptide: [NMeI]VLSLD[dV]PIKLK([γGlu-C20 diacid])KILLEQEKQKAQREQAETN[Aib]QILAQV-NH2
modifications: N-terminus assumed
SMILES: CC[C@H](C)[C@H](NC)C(=O)N[C@H](C(=O)N[C@@H](CC(C)C)C(=O)N[C@@H](CO)C(=O)N[C@@H](CC(C)C)C(=O)N[C@@H](CC(=O)O)C(=O)N[C@@H](C(=O)N1CCC[C@H]1C(=O)N[C@H](C(=O)N[C@@H](CCCCN)C(=O)N[C@@H](CC(C)C)C(=O)N[C@@H](CCCCNC(=O)CC[C@H](NC(=O)CCCCCCCCCCCCCCCCCCC(=O)O)C(=O)O)C(=O)N[C@@H](CCCCN)C(=O)N[C@H](C(=O)N[C@@H](CC(C)C)C(=O)N[C@@H](CC(C)C)C(=O)N[C@@H](CCC(=O)O)C(=O)N[C@@H](CCC(N)=O)C(=O)N[C@@H](CCC(=O)O)C(=O)N[C@@H](CCCCN)C(=O)N[C@@H](CCC(N)=O)C(=O)N[C@@H](CCCCN)C(=O)N[C@@H](C)C(=O)N[C@@H](CCC(N)=O)C(=O)N[C@@H](CCCNC(=N)N)C(=O)N[C@@H](CCC(=O)O)C(=O)N[C@@H](CCC(N)=O)C(=O)N[C@@H](C)C(=O)N[C@@H](CCC(=O)O)C(=O)N[C@H](C(=O)N[C@@H](CC(N)=O)C(=O)NC(C)(C)C(=O)N[C@@H](CCC(N)=O)C(=O)N[C@H](C(=O)N[C@@H](CC(C)C)C(=O)N[C@@H](C)C(=O)N[C@@H](CCC(N)=O)C(=O)N[C@H](C(N)=O)C(C)C)[C@@H](C)CC)[C@@H](C)O)[C@@H](C)CC)[C@@H](C)CC)C(C)C)C(C)C

- EC50 (CRF1R receptor): > 250 nM
- Emax (% I) (CRF1R receptor): 26%
- EC50 [nM] (cAMP) [1]: 0.17 nM
Binder: IVLSLD[dV]PIKLK([γGlu-C16 diacid])QILLKQERQKKQREQAEKN[Aib]QILEQV-NH2 [SEQ ID NO 10]
